The text below walks through data of publication doi:10.1101/181321 (bioRxiv, 2017).

In test [1] the target is C-terminal biotinylated histone H3 peptide (1 to 35 a.a.) (UniProt P68431). The test is described as follows: SPR.
In test [2] the target is T1, C-terminal region of human Importin4 (C-Importin4, residues 668 to 1081) (human, UniProt Q8TEX9 668-1081).
T1 sequence: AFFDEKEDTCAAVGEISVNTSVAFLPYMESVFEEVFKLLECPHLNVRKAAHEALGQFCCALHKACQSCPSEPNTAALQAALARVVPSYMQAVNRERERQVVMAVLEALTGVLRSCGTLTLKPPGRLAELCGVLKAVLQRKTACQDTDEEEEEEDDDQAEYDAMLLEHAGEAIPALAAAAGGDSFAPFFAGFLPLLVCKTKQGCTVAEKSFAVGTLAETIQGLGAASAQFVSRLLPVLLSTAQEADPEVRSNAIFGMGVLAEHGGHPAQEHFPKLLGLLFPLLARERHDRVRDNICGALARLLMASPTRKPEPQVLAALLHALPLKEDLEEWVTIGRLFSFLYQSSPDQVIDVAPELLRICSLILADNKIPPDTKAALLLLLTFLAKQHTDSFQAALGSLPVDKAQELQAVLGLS
As to the kind of experiment: SPR.

By Kd is commonly meant the constant that tells how readily two partners part at equilibrium.

The molecule “C-terminal region of human Importin4 (C-Importin4, residues 668 to 1081) (from UniProt Q8TEX9 668-1081) (domain or fragment)” displayed a Kd in test [1] of 1600 nM.

As to ARTKQTARKSTGGKAPRK [histone H3 peptide (1-18 a.a.)], in test [2], the binding result is “binds”.
